Data published in PMC5675522 (Angiogenesis, 2017).

Experiments:
[1] = biological target: T1, recombinant human SFRP2 (secreted frizzled-related protein 2) with C-terminal hexahistidine tag (human, UniProt Q96HF1 25-295); test: ELISA
T1 sequence (looked up): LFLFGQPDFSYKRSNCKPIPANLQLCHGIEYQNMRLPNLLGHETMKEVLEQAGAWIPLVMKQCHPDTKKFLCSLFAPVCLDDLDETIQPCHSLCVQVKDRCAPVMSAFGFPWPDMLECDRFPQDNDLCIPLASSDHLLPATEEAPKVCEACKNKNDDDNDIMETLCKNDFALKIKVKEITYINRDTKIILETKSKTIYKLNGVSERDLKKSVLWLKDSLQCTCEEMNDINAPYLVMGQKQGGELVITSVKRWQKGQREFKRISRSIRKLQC

[2] = biological target: T2, recombinant human Wnt5a (human, UniProt P41221 62-380); test: ELISA
T2 sequence (looked up): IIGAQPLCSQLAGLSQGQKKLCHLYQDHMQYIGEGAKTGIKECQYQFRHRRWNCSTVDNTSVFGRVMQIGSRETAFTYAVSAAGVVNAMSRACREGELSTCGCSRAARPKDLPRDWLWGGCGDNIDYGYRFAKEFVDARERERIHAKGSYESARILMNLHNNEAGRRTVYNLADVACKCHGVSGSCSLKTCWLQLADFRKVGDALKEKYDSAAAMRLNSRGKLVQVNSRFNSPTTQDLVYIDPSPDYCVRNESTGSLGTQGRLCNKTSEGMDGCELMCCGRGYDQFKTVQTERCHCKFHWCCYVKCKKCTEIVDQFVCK

EC50 [1]: 205 nM
Kd [1]: 103 nM
EC50 [2]: 216 nM
Kd [2]: 108 nM
B1: Frizzled-5 Fc Fusion protein (Fc fusion, human, UniProt Q13467 27-238, looked up)
chain: ASKAPVCQEITVPMCRGIGYNLTHMPNQFNHDTQDEAGLEVHQFWPLVEIQCSPDLRFFLCSMYTPICLPDYHKPLPPCRSVCERAKAGCSPLMRQYGFAWPERMSCDRLPVLGRDAEVLCMDYNRSEATTAPPRPFPAKPTLPGPPGAPASGGECPAGGPFVCKCREPFVPILKESHPLYNKVRTGQVPNCAVPCYQPSFSADERTFATFW
